The values that follow come from paper PMC6980855.

The target of assay [1] is Bcl-XL (single cysteine 152C, Alexa647-labeled, recombinant), Q07817-1. Description: FRET. The following applies: chain shown with the change, 20 nM Alexa568-labeled BimL mutant (FRET donor), Alexa647-labeled Bcl-XL acceptor.
For assay [2], the target named is Bax (single cysteine 126C, Alexa647-labeled, recombinant), Q07812. Description: FRET. The following applies: chain shown with the change, 20 nM Alexa568-labeled BimL mutant (FRET donor), Alexa647-labeled Bax acceptor.
Chain of Bax (single cysteine 126C, Alexa647-labeled, recombinant), Q07812 (Q07812 whole entry): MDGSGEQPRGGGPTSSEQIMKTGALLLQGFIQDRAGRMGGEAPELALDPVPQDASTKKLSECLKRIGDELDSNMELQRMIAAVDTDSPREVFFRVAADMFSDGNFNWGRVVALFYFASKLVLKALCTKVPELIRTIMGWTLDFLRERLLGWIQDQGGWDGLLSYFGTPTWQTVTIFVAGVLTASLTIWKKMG
Where [3] appears, read: membranes present (liposomes), apparent Kd, parent: 1±1.
The mark [4] stands for this setting: membranes present (liposomes), apparent Kd, parent: 29±1.

Chain of Bcl-XL (single cysteine 152C, Alexa647-labeled, recombinant), Q07817-1 (Q07817 whole entry): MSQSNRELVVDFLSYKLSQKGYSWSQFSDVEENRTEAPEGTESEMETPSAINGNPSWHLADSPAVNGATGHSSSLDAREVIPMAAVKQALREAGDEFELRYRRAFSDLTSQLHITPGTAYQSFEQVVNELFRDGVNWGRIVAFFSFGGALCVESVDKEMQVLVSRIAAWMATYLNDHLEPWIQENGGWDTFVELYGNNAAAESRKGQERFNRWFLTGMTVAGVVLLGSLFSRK

B1: BimL (single cysteine Q41C, Alexa568-labeled, recombinant) I90E; L94E; I97E; F101E (protein)
chain: MHHHHHHGGSGGTGGSENLYFQGTMAKQPSDVSSECDREGGQLQPAERPPQLRPGAPTSLQTEPCDRSPAPMSCDKSTQTPSPPCQAFNHYLSAMASIRQSQEEPEDLRPEIREAQEERREGDEENETYTRRVFANDYREAEDHPQMVILQLLRFIFRLVWRRH
On to B1, for which the Kd in assay [1] (in solution, parent: 8±0.4) is more than 1000 nM; in assay [1] (setting [3]), more than 1000 nM; in assay [2] (in solution, parent: 59±7), more than 1000 nM; in assay [2] (setting [4]), more than 1000 nM.

B2: BimL (single cysteine Q41C, Alexa568-labeled, recombinant) R130A; R134A (protein)
chain: MHHHHHHGGSGGTGGSENLYFQGTMAKQPSDVSSECDREGGQLQPAERPPQLRPGAPTSLQTEPCDRSPAPMSCDKSTQTPSPPCQAFNHYLSAMASIRQSQEEPEDLRPEIRIAQELRRIGDEFNETYTRRVFANDYREAEDHPQMVILQLLAFIFALVWRRH
Consider B2, for which the Kd in assay [1] (setting [3]) was 20 nM; in assay [2] (setting [4]) it was 64 nM.

B3: BimL (single cysteine Q41C, Alexa568-labeled, recombinant) L129E (protein)
chain: MHHHHHHGGSGGTGGSENLYFQGTMAKQPSDVSSECDREGGQLQPAERPPQLRPGAPTSLQTEPCDRSPAPMSCDKSTQTPSPPCQAFNHYLSAMASIRQSQEEPEDLRPEIRIAQELRRIGDEFNETYTRRVFANDYREAEDHPQMVILQLERFIFRLVWRRH
For the molecule B3, the Kd in assay [1] (setting [3]) is 5 nM.

B4: BimL (single cysteine Q41C, Alexa568-labeled, recombinant) I132E (protein)
chain: MHHHHHHGGSGGTGGSENLYFQGTMAKQPSDVSSECDREGGQLQPAERPPQLRPGAPTSLQTEPCDRSPAPMSCDKSTQTPSPPCQAFNHYLSAMASIRQSQEEPEDLRPEIRIAQELRRIGDEFNETYTRRVFANDYREAEDHPQMVILQLLRFEFRLVWRRH
Regarding B4, the Kd in assay [1] (in solution, parent: 8±0.4) came out at 10 nM; in assay [1] (setting [3]), 2 nM.

B5: BimL (single cysteine Q41C, Alexa568-labeled, recombinant) V124E (protein)
chain: MHHHHHHGGSGGTGGSENLYFQGTMAKQPSDVSSECDREGGQLQPAERPPQLRPGAPTSLQTEPCDRSPAPMSCDKSTQTPSPPCQAFNHYLSAMASIRQSQEEPEDLRPEIRIAQELRRIGDEFNETYTRRVFANDYREAEDHPQMEILQLLRFIFRLVWRRH
As for B5, the Kd in assay [1] (setting [3]) was determined as 2 nM; in assay [2] (setting [4]), 95 nM.
